Reference: publication PMC4802922

Target: Dnmt3a-CD wt;Dnmt3L (Mus musculus;) (UniProt O88508+Q9CWR8)
Experiment: 2-aminopurine fluorescence (base flipping)
Conditions: 0.1 mM AdoMet; N15 of strand 1 = 2-aminopurine (replaces target C); C15 of strand 2 = 5-methylcytosine; Fluorescence polarization: 10 nM duplex, 0.1 mM AdoHcy, Dnmt3a reaction buffer (composition not given), 25 °C; enzyme up to 600-800 nM

Dnmt3a-CD wt;Dnmt3L (Mus musculus;), sequence (O88508 608-908, chain 1 of 2): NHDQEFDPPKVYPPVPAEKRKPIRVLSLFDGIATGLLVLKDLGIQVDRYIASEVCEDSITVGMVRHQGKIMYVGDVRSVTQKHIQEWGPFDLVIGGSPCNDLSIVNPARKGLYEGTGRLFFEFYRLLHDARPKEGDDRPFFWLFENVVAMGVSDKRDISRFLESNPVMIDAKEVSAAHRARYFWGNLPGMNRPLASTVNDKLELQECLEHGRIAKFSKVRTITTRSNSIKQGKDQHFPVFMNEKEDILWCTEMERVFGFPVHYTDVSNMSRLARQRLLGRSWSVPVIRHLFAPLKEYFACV
Dnmt3a-CD wt;Dnmt3L (Mus musculus;), sequence (Q9CWR8 whole entry, chain 2 of 2): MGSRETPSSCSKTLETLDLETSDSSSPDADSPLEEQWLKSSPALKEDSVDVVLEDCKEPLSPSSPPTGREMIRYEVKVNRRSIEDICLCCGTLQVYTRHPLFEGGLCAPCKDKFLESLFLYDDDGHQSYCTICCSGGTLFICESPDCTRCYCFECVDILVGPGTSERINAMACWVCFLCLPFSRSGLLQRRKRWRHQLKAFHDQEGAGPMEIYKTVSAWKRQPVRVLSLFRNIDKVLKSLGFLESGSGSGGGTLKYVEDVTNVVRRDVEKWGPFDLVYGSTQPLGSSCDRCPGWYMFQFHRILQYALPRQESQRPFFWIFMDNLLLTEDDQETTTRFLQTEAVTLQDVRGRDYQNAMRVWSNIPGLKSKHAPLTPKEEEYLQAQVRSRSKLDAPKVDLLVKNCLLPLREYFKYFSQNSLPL

CTGAATACTACTTGNGCTCTCTAACCTGAT / ATCAGGTTAGAGAGCGCAAGTAGTATTCAG [GBGC/CGMG]
binding signal: 100%
